According to the supplement of paper PMC9112550, “Optimization of the antimicrobial peptide Bac7 by deep mutational scanning” (BMC Biology, 2022):

system: Escherichia coli TOP10; test: shrunken log2 fold change of peptide-encoding DNA abundance (4.5 h post-induction vs induction); higher = less antimicrobial activity (less host growth inhibition); settings: time post-induction: 4.5 h; library: site-saturation at positions 5, 18, 19, 20
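Further: peptides expressed intracellularly from a pBAD plasmid library in pooled LB shake-flask culture, induced with 0.3% L-arabinose, DNA abundance read by NGS, three biological replicates, DESeq2 with apeglm shrinkage.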

**Q.** RRIRRRPPRLPRPRPRPACVPRP was tested. Which “shrunken log2 fold change” value did it give?
**A.** Its value is 0.451.

**Q.** RRIRSRPPRLPRPRPRPYSLPRP was tested. Which “shrunken log2 fold change” value did it give?
**A.** Its value is -0.35.

**Q.** For RRIRMRPPRLPRPRPRPYLNPRP, which “shrunken log2 fold change” value is on record?
**A.** The value was 0.00358.

**Q.** How did the “shrunken log2 fold change” value turn out when RRIRGRPPRLPRPRPRPMKSPRP was run?
**A.** The value was 0.206.

**Q.** How did the “shrunken log2 fold change” value turn out when RRIRDRPPRLPRPRPRPNYQPRP was run?
**A.** The value was -0.187.

**Q.** For RRIRVRPPRLPRPRPRPNHQPRP, which “shrunken log2 fold change” value is on record?
**A.** Its value is -0.221.

**Q.** For RRIRGRPPRLPRPRPRPRCDPRP, which “shrunken log2 fold change” value is on record?
**A.** Its value is 0.629.

**Q.** How did the “shrunken log2 fold change” value turn out when RRIRTRPPRLPRPRPRPLGIPRP was run?
**A.** The value was -0.638.

**Q.** How did the “shrunken log2 fold change” value turn out when RRIRNRPPRLPRPRPRPTQYPRP was run?
**A.** Its value is 0.095.

**Q.** With RRIRIRPPRLPRPRPRPAKWPRP as the sequence, how does the “shrunken log2 fold change” value read?
**A.** The value was 0.109.

**Q.** RRIRWRPPRLPRPRPRPRFLPRP was tested. Which “shrunken log2 fold change” value did it give?
**A.** Its value is 0.0174.

**Q.** With RRIRTRPPRLPRPRPRPPSRPRP as the sequence, how does the “shrunken log2 fold change” value read?
**A.** Its value is 0.191.

**Q.** With RRIRLRPPRLPRPRPRPPFTPRP as the sequence, how does the “shrunken log2 fold change” value read?
**A.** Its value is 0.11.

**Q.** With RRIRNRPPRLPRPRPRPEYAPRP as the sequence, how does the “shrunken log2 fold change” value read?
**A.** Its value is -0.175.

**Q.** RRIRARPPRLPRPRPRPISCPRP was tested. Which “shrunken log2 fold change” value did it give?
**A.** The value was 0.0406.

**Q.** For RRIRDRPPRLPRPRPRPQQFPRP, which “shrunken log2 fold change” value is on record?
**A.** Its value is 0.251.

**Q.** RRIRQRPPRLPRPRPRPTDFPRP was tested. Which “shrunken log2 fold change” value did it give?
**A.** The value was -0.122.

**Q.** Which “shrunken log2 fold change” value does the source give for RRIRERPPRLPRPRPRPMCNPRP here?
**A.** The value was -0.0237.

**Q.** How did the “shrunken log2 fold change” value turn out when RRIRCRPPRLPRPRPRPFMDPRP was run?
**A.** The value was -0.361.

**Q.** Which “shrunken log2 fold change” value does the source give for RRIRARPPRLPRPRPRPAHDPRP here?
**A.** Its value is 0.184.

**Q.** RRIRSRPPRLPRPRPRPTHRPRP was tested. Which “shrunken log2 fold change” value did it give?
**A.** Its value is 0.0995.

**Q.** With RRIRQRPPRLPRPRPRPDIYPRP as the sequence, how does the “shrunken log2 fold change” value read?
**A.** Its value is -0.284.

**Q.** RRIRHRPPRLPRPRPRPHHDPRP was tested. Which “shrunken log2 fold change” value did it give?
**A.** Its value is -0.166.

**Q.** RRIRFRPPRLPRPRPRPRAIPRP was tested. Which “shrunken log2 fold change” value did it give?
**A.** Its value is 0.0543.

**Q.** With RRIRDRPPRLPRPRPRPLGLPRP as the sequence, how does the “shrunken log2 fold change” value read?
**A.** Its value is 0.0955.

**Q.** RRIRVRPPRLPRPRPRPMIQPRP was tested. Which “shrunken log2 fold change” value did it give?
**A.** Its value is -0.403.

**Q.** For RRIRQRPPRLPRPRPRPMVGPRP, which “shrunken log2 fold change” value is on record?
**A.** The value was -0.00963.

**Q.** For RRIRVRPPRLPRPRPRPDDAPRP, which “shrunken log2 fold change” value is on record?
**A.** The value was 0.134.

**Q.** Which “shrunken log2 fold change” value does the source give for RRIRCRPPRLPRPRPRPQWRPRP here?
**A.** The value was 0.274.

**Q.** Which “shrunken log2 fold change” value does the source give for RRIRWRPPRLPRPRPRPWNRPRP here?
**A.** Its value is 0.066.

**Q.** Which “shrunken log2 fold change” value does the source give for RRIRMRPPRLPRPRPRPQHLPRP here?
**A.** The value was -0.344.

**Q.** For RRIRIRPPRLPRPRPRPKQTPRP, which “shrunken log2 fold change” value is on record?
**A.** The value was -0.0291.

**Q.** RRIRPRPPRLPRPRPRPGYLPRP was tested. Which “shrunken log2 fold change” value did it give?
**A.** Its value is -0.129.

**Q.** Which “shrunken log2 fold change” value does the source give for RRIRGRPPRLPRPRPRPCSKPRP here?
**A.** Its value is 0.09.

**Q.** For RRIRDRPPRLPRPRPRPHVFPRP, which “shrunken log2 fold change” value is on record?
**A.** The value was -0.0358.

**Q.** Which “shrunken log2 fold change” value does the source give for RRIRPRPPRLPRPRPRPKITPRP here?
**A.** The value was -0.105.

**Q.** RRIRMRPPRLPRPRPRPLGWPRP was tested. Which “shrunken log2 fold change” value did it give?
**A.** Its value is 1.32.

**Q.** For RRIRLRPPRLPRPRPRPMIEPRP, which “shrunken log2 fold change” value is on record?
**A.** Its value is -0.00289.

**Q.** How did the “shrunken log2 fold change” value turn out when RRIRLRPPRLPRPRPRPATDPRP was run?
**A.** Its value is 0.142.

**Q.** For RRIRLRPPRLPRPRPRPRVMPRP, which “shrunken log2 fold change” value is on record?
**A.** Its value is 0.0356.

**Q.** How did the “shrunken log2 fold change” value turn out when RRIRSRPPRLPRPRPRPGIDPRP was run?
**A.** Its value is -0.0173.

**Q.** With RRIRHRPPRLPRPRPRPPAGPRP as the sequence, how does the “shrunken log2 fold change” value read?
**A.** Its value is 0.344.

**Q.** How did the “shrunken log2 fold change” value turn out when RRIRWRPPRLPRPRPRPSFFPRP was run?
**A.** Its value is 0.0041.

**Q.** How did the “shrunken log2 fold change” value turn out when RRIRDRPPRLPRPRPRPFHYPRP was run?
**A.** Its value is -0.00232.

**Q.** How did the “shrunken log2 fold change” value turn out when RRIRFRPPRLPRPRPRPKVGPRP was run?
**A.** The value was -0.01.

**Q.** Which “shrunken log2 fold change” value does the source give for RRIRWRPPRLPRPRPRPSNKPRP here?
**A.** Its value is -0.403.

**Q.** Which “shrunken log2 fold change” value does the source give for RRIRMRPPRLPRPRPRPDGWPRP here?
**A.** Its value is 1.48.

**Q.** With RRIRGRPPRLPRPRPRPFEQPRP as the sequence, how does the “shrunken log2 fold change” value read?
**A.** Its value is 0.618.

**Q.** How did the “shrunken log2 fold change” value turn out when RRIRNRPPRLPRPRPRPYHVPRP was run?
**A.** Its value is -0.116.

**Q.** How did the “shrunken log2 fold change” value turn out when RRIRTRPPRLPRPRPRPNELPRP was run?
**A.** Its value is -0.0115.

**Q.** RRIRTRPPRLPRPRPRPCRLPRP was tested. Which “shrunken log2 fold change” value did it give?
**A.** The value was 0.0337.

**Q.** RRIRKRPPRLPRPRPRPHHWPRP was tested. Which “shrunken log2 fold change” value did it give?
**A.** The value was 0.706.

**Q.** With RRIRLRPPRLPRPRPRPKFQPRP as the sequence, how does the “shrunken log2 fold change” value read?
**A.** Its value is -0.113.

**Q.** Which “shrunken log2 fold change” value does the source give for RRIRQRPPRLPRPRPRPRGSPRP here?
**A.** Its value is 0.0908.

**Q.** How did the “shrunken log2 fold change” value turn out when RRIRTRPPRLPRPRPRPFWDPRP was run?
**A.** The value was 0.126.

**Q.** RRIRNRPPRLPRPRPRPAGAPRP was tested. Which “shrunken log2 fold change” value did it give?
**A.** Its value is 0.665.

**Q.** RRIRHRPPRLPRPRPRPRPPPRP was tested. Which “shrunken log2 fold change” value did it give?
**A.** Its value is 1.15.

**Q.** With RRIRLRPPRLPRPRPRPLTHPRP as the sequence, how does the “shrunken log2 fold change” value read?
**A.** Its value is -0.0644.

**Q.** For RRIRMRPPRLPRPRPRPVWLPRP, which “shrunken log2 fold change” value is on record?
**A.** The value was 3.04.

**Q.** How did the “shrunken log2 fold change” value turn out when RRIRSRPPRLPRPRPRPRKEPRP was run?
**A.** Its value is 0.131.

**Q.** RRIRPRPPRLPRPRPRPRKEPRP was tested. Which “shrunken log2 fold change” value did it give?
**A.** The value was -0.157.

**Q.** Which “shrunken log2 fold change” value does the source give for RRIRCRPPRLPRPRPRPCNWPRP here?
**A.** The value was -0.141.

**Q.** RRIRARPPRLPRPRPRPGRDPRP was tested. Which “shrunken log2 fold change” value did it give?
**A.** Its value is 0.671.

**Q.** For RRIRARPPRLPRPRPRPEDFPRP, which “shrunken log2 fold change” value is on record?
**A.** The value was 1.11.

**Q.** Which “shrunken log2 fold change” value does the source give for RRIRPRPPRLPRPRPRPAHTPRP here?
**A.** Its value is -0.0311.

**Q.** With RRIRVRPPRLPRPRPRPQFLPRP as the sequence, how does the “shrunken log2 fold change” value read?
**A.** Its value is 0.052.

**Q.** With RRIRYRPPRLPRPRPRPMNSPRP as the sequence, how does the “shrunken log2 fold change” value read?
**A.** Its value is -0.0134.

**Q.** With RRIRIRPPRLPRPRPRPFIPPRP as the sequence, how does the “shrunken log2 fold change” value read?
**A.** The value was -0.697.

**Q.** For RRIRRRPPRLPRPRPRPKSYPRP, which “shrunken log2 fold change” value is on record?
**A.** Its value is 0.171.

**Q.** Which “shrunken log2 fold change” value does the source give for RRIRNRPPRLPRPRPRPNPYPRP here?
**A.** The value was -0.151.

**Q.** Which “shrunken log2 fold change” value does the source give for RRIRQRPPRLPRPRPRPLVCPRP here?
**A.** Its value is 0.0584.

**Q.** With RRIRSRPPRLPRPRPRPMMKPRP as the sequence, how does the “shrunken log2 fold change” value read?
**A.** The value was 1.75.

**Q.** With RRIRWRPPRLPRPRPRPVLNPRP as the sequence, how does the “shrunken log2 fold change” value read?
**A.** The value was 0.116.

**Q.** With RRIRIRPPRLPRPRPRPADAPRP as the sequence, how does the “shrunken log2 fold change” value read?
**A.** The value was -0.291.

**Q.** With RRIRDRPPRLPRPRPRPCSWPRP as the sequence, how does the “shrunken log2 fold change” value read?
**A.** Its value is 0.654.
